# Experimental data reported in paper doi:10.1101/2022.06.14.496144.
# Key:
# [1] = biological target: GlOCPX E25C mutant (Gloeobacter kilaueensis JS1); assay: SEC
# [2] = biological target: Gloeobacter kilaueensis JS1 Orange Carotenoid Protein clade X (GlOCPX), wild type (Gloeobacter kilaueensis JS1); assay: SEC
# [3] = biological target: Gloeobacter kilaueensis JS1 Orange Carotenoid Protein clade X (GlOCPX), wild type (Gloeobacter kilaueensis JS1); assay: SEC-MALS
Substance,dimer/monomer ratio [1] [%],dimer/monomer ratio [2] [%],stoichiometry N [3]
GlOCPX E25C mutant (natural protein),25,–,–
"Gloeobacter kilaueensis JS1 Orange Carotenoid Protein clade X (GlOCPX), wild type (natural protein)",–,5,2
